For one data set, the target named is T1, Gly-Gly-Gly-COOH.
T1 chain: GGG

Another data set addresses T2, Abz-LPETGK(Dnp)-CONH2.
T2 chain: LPETGK

The target of a further data set is T3, Abz-LPESGK(Dnp)-CONH2.
T3 chain: LPESGK

For the next data set, the target named is T4, Abz-LAETGK(Dnp)-CONH2.
T4 chain: LAETGK

B1: wild-type S. aureus sortase A (protein)
chain: QAKPQIPKDKSKVAGYIEIPDADIKEPVYPGPATPEQLNRGVSFAEENESLDDQNISIAGHTFIDRPNYQFTNLKAAKKGSMVYFKVGNETRKYKMTSIRDVKPTDVEVLDEQKGKDKQLTLITCDDYNEKTGVWEKRKIFVATEVK
For the protein B1, in the data set with Gly-Gly-Gly-COOH, the Km, GGG (uM); with LPETG peptide came out at 291 µM and the Km,GGG (µM); listed substrate LPETG is 211 µM. In addition, in the data set with Abz-LPETGK(Dnp)-CONH2, the Km (as a rule, the substrate concentration at which the rate is half of its maximum) is 7600 µM; the Km, LxExG amounted to 5180 µM; the kcat/Km (commonly the second-order rate constant that governs catalysis at low substrate concentration) turned out to be 200 M⁻¹ s⁻¹; the kcat/Km (Hz/M) stood at 236 Hz/M.

B2: eSrtA(4S-3.5) (protein)
chain: QAKPQIPKDKSKVAGYIEIPDADIKEPVYPGPATREQLNRGVSFTEENESLDDQNISITGHTFIDRPNYQFTNLKAAKKGSMVYFKVGNETRKYKMTSIRNVKPTAVEVLDEQKGKDKQLTLVTCDDYNEETGVWETRKIFVATEVK
Regarding B2, in the data set with Abz-LPESGK(Dnp)-CONH2, the Avg KM was 38800 µM; the Avg kcat/KM was 193; the Km, LxExG stood at 7310 µM; the Specificity, LPESG over LPETG is 1.45 fold. In addition, the kcat/Km (Hz/M) with Abz-LPESGK(Dnp)-CONH2 came out at 154 Hz/M. In the data set with Abz-LPETGK(Dnp)-CONH2, this protein yielded an Avg KM of 39300 µM and an Avg kcat/KM of 133.

B3: eSrtA(2A-4) (protein)
chain: QAKPQIPKDKSKVAGYIEIPDADIKEPVYPGPATREQLNRGVSFHEENESLDDQNISIAGHTFIDRPNYQFTNLKAAKKGSMVYFKVGNETRKYKMTSIRNVRPTAVEILDEQKGKDKQLTLVTCDDYNEETGVWETRKIFVATEVK
With B3, in the data set with Abz-LAETGK(Dnp)-CONH2, the Avg KM came to 3720 µM; the Avg kcat/KM came to 534; the Km, LxExG is 3250 µM; the Specificity (relative catalytic efficiency, fold), LAETG over LPETG amounted to 55.1 fold. Besides, in the data set with Abz-LAETGK(Dnp)-CONH2, the “increase in kcat/Km, LAETG substrate against LPETG substrate” value is “from ˜40-fold (2Ar4) to ˜125-fold (2Ar5) increase in kcat/Km”; the kcat/Km (Hz/M) was 585 Hz/M; the specificity (relative cat. Efficiency, fold), LAETG over LPETG is 73 fold. Further, in the data set with Abz-LPETGK(Dnp)-CONH2, the Avg KM worked out at 5180 µM; the Avg kcat/KM stood at 9.69; the Km, LxExG was found to be 11700 µM; the kcat/Km (Hz/M) was 8.01 Hz/M.

B4: 2A.6B (protein)
chain: QAKPQIPKDKSKVAGYIEIPDADIKEPVYPGPATREQLNKGVSFHEENESLDDQNISIAGHTFIDRPNYQFTNLKAAKVGSMVYFKVGNETRKYKMTSIRKVRPTAVEVLDEQKGKDKQLTLVTCDDYNEETGVWETRKIFVATEVK
With B4, in the data set with Abz-LAETGK(Dnp)-CONH2, the Km, LxExG came out at 310 µM and the kcat/Km (Hz/M) turned out to be 2270 Hz/M. For the same protein, in the data set with Gly-Gly-Gly-COOH, the Km, GGG (uM); with LAETG peptide came out at 642 µM.

B5: eSrtA(4S-4) (protein)
chain: QAKPQIPKDKSKVAGYIEIPDADIKEPVYPGPATREQLNRGVSFVEENESLDDQNISITGHTSIDRPNYQFTNLKAAKKGSMVYFKVGNETRKYKMTSIRNVKPTAVEVLDEQKGKDKQLTLVTCDDYNEETGVWETRKIFVATEVK
Take B5: in the data set with Abz-LPESGK(Dnp)-CONH2, the Avg KM stood at 1560 µM; the Avg kcat/KM was 487; the Km, LxExG stood at 1410 µM; the Specificity, LPESG over LPETG is 2.22 fold. For the same protein, in the data set with Abz-LPESGK(Dnp)-CONH2, the kcat/Km (Hz/M) was 517 Hz/M and the specificity (relative cat. Efficiency, fold), LPESG over LPETG was 1.82 fold. Besides, in the data set with Abz-LPETGK(Dnp)-CONH2, the Avg KM was 491 µM; the Avg kcat/KM turned out to be 219; the Km, LxExG came out at 339 µM; the kcat/Km (Hz/M) amounted to 283 Hz/M.

B6: eSrtA(2A-3) (protein)
chain: QAKPQIPKDKSKVAGYIEIPDADIREPVYPGPATREQLNRGVSFAEENESLDDQNISIAGHTSIGRPNYQFTNLRAAKKGSMVYFEVGNETRKYKMTSIRNVRPTAVEILDEQKGKDRQLTLFTCDDYNEETGVWETRKIFVATEVK
Consider B6, for which, in the data set with Abz-LAETGK(Dnp)-CONH2, the Avg KM amounted to 1620 µM and the Avg kcat/KM was found to be 881. In the data set with Abz-LPETGK(Dnp)-CONH2, this protein registered an Avg KM of 2100 µM; an Avg kcat/KM of 1270; a Specificity (relative catalytic efficiency, fold), LPETG over LAETG of 1.44 fold.

B7: eSrtA(4S-3) (protein)
chain: QAKPQIPKDKSKVAGYIEIPDADIKEPVYPGPATREQLSRGVSFTEENESLDDQNISITGHTSIGRPNYQFTNLRAAKKGSMVYFKVGNETRKYKMTSIRNVKPTAVEVLDEQEGKDEQLTLVTCDDYNEETGVWETRKIFVATEVK
In the data set with Abz-LPESGK(Dnp)-CONH2, B7 came in with an Avg KM of 3330 µM; an Avg kcat/KM of 763; a Specificity, LPESG over LPETG of 245 fold. In the data set with Abz-LPETGK(Dnp)-CONH2, the Avg KM amounted to 3390 µM and the Avg kcat/KM amounted to 3.12.

B8: eSrtA(2A-9) H104A (protein)
chain: QAKPQIPKDKSKVAGYIEIPDADIKEPVYPGPATREQLNRGVCFADENESLDDQNISIAGHTFIDRPNYQFTNLKAAKPGSMVYFKVGNETRIYKMTSIRKVHPNAVEVLDEQEGKDKQLTLVTCDDYNEETGVWESRKIFVATEVK
As for B8, the “preference for LPETG over LAETG (kcat/Km)” value with Abz-LPETGK(Dnp)-CONH2 was “resulting in a 60-fold preference for LPETG (SEQ ID NO: 4) over LAETG (SEQ ID NO: 5)”.

B9: eSrtA(2A-9) V182I (protein)
chain: QAKPQIPKDKSKVAGYIEIPDADIKEPVYPGPATREQLNRGVCFHDENESLDDQNISIAGHTFIDRPNYQFTNLKAAKPGSMVYFKVGNETRIYKMTSIRKVHPNAVEVLDEQEGKDKQLTLITCDDYNEETGVWESRKIFVATEVK
As to B9, the “preference for LAETG over LPETG (kcat/Km)” value with Abz-LAETGK(Dnp)-CONH2 is “lowers the activity level for LAETG (SEQ ID NO: 5), but maintains an 85-fold preference for LAETG (SEQ ID NO: 5) over LPETG (SEQ ID NO: 4)”.

B10: eSrtA(4S-5) (protein)
chain: QAKPQIPKDKSKVAGYIEIPDADIKEPVYPGPATREQLDRGVSFVEENESLDDQNISITGHTAIDRPNYQFTNLRAAKKGSMVYFKVGNETRKYKMTSIRNVKPTAVEVLDEQKGKDKQLTLVTCDDYNEETGVWETRKIFVATEVK
As to B10, in the data set with Abz-LPESGK(Dnp)-CONH2, the Avg KM turned out to be 76 µM; the Avg kcat/KM amounted to 5130; the Km, LxExG was 76 µM; the Specificity, LPESG over LPETG was 9.67 fold. Moreover, in the data set with Abz-LPESGK(Dnp)-CONH2, the “increase in kcat/Km, LPESG substrate against LPETG substrate” value is recorded as “from ˜2-fold (4Sr5) to ˜5-fold (4Sr6a) increase in kcat/Km”; the “increased affinity for the LPESG substrate as compared to the LPETG substrate” value is reported as “from ˜2-fold (4Sr6b) to ˜8-fold (4Sr5)”; the kcat/Km (Hz/M) worked out at 5130 Hz/M; the specificity (relative cat. Efficiency, fold), LPESG over LPETG was found to be 10 fold. Further, the Km,GGG (uM); with LPESG peptide with Gly-Gly-Gly-COOH is 26700 µM. In the data set with Abz-LPETGK(Dnp)-CONH2, the Avg KM came out at 11.7 µM; the Avg kcat/KM stood at 530; the Km, LxExG came to 12.2 µM; the kcat/Km (Hz/M) is 513 Hz/M.

B11: 4S.6B (protein)
chain: QAKPQIPKDKSKVAGYIEIPDADIKEPVYPGPATREQLDRGVSFVEENESLDDQNISISGHTAIDRPNYQFTNLPAAKKGSMVYFKVGNETRKYKMTSIRNVKPTAVEVLDEQKGKDKQLTLVTCDDYNPETGVWETRKIFVATEVK
For the protein B11, in the data set with Abz-LPESGK(Dnp)-CONH2, the Km, LxExG was determined as 312 µM; the “increased affinity for the LPESG substrate as compared to the LPETG substrate” value is “from ˜2-fold (4Sr6b) to ˜8-fold (4Sr5)”; the kcat/Km (Hz/M) was 4140 Hz/M; the specificity (relative cat. Efficiency, fold), LPESG over LPETG is 0.91 fold. The Km,GGG (uM); with LPESG peptide with Gly-Gly-Gly-COOH is 15700 µM. Also, in the data set with Abz-LPETGK(Dnp)-CONH2, the Km, LxExG was 238 µM and the kcat/Km (Hz/M) came to 4550 Hz/M.

B12: 4S.6C (protein)
chain: QAKPQIPKDKSKVAGYIEIPDADIKEPVYPGPATREQLDRGVSFVEENESLDDQNISITGHTAIDRPNYQFTNLRAAKKGSMVYFKVGNETRKYKMTSIRNVKPTAVEVLDEQKGKDKQLTLVTCDDYNFETGVWETRKIFVATEVK
As to B12, in the data set with Abz-LPESGK(Dnp)-CONH2, the Km, LxExG came out at 156 µM; the kcat/Km (Hz/M) was found to be 4350 Hz/M; the specificity (relative cat. Efficiency, fold), LPESG over LPETG turned out to be 18.5 fold. For the same protein, in the data set with Gly-Gly-Gly-COOH, the Km,GGG (uM); with LPESG peptide is 36000 µM. Moreover, in the data set with Abz-LPETGK(Dnp)-CONH2, the Km, LxExG was 16.1 µM and the kcat/Km (Hz/M) is 235 Hz/M.

B13: eSrtA(4S-9) V104A (protein)
chain: QAKPQIPKDKSKVAGYIEIPDADIKEPVYPGPATREQLDRGVCFAEENESLDDQNISITGHTAIDRPNYQFTNLRAAKKGSMVYLKVGNETRKYKMTSIRNVKPTAVEVLDEQKGKDKQLTLVTCDDYNFETGVWETRKIFVATEVK
B13: the “lowering of specificity for LPESG over LPETG against eSrtA(4S-9)” value with Abz-LPESGK(Dnp)-CONH2 is “lowering specificity for LPESG (SEQ ID NO: 3) over LPETG (SEQ ID NO: 4) by 14-fold for the V104A mutant”.

B14: eSrtA(4S-6) (protein)
chain: QAKPQIPKDKSKVAGYIEIPDADIKEPVYPGPATREQLDRGVSFVEENESLDDQNISISGHTAIDRPNYQFTNLGAAKKGSMVYFKVGNETRKYKMTSIRNVKPTAVEVLDEQKGKDKQLTLVTCDDYNVETGVWETRKIFVATEVK
For B14, in the data set with Abz-LPESGK(Dnp)-CONH2, the Avg KM turned out to be 125 µM; the Avg kcat/KM came out at 7530; the Km, LxExG was found to be 102 µM; the Specificity, LPESG over LPETG was determined as 8.09 fold. Further, in the data set with Abz-LPESGK(Dnp)-CONH2, the “increase in kcat/Km, LPESG substrate against LPETG substrate” value was “from ˜2-fold (4Sr5) to ˜5-fold (4Sr6a) increase in kcat/Km”; the kcat/Km (Hz/M) was 9390 Hz/M; the specificity (relative cat. Efficiency, fold), LPESG over LPETG came out at 11 fold. For the same protein, in the data set with Gly-Gly-Gly-COOH, the Avg KM (uM) for GGG; with LPESG (4S) peptide is 13100 µM, the Avg kcat/KM for GGG; with LPESG (4S) peptide came to 153 and the Km,GGG (uM); with LPESG peptide amounted to 4950 µM. Moreover, in the data set with Abz-LPETGK(Dnp)-CONH2, the Avg KM was found to be 1040 µM; the Avg kcat/KM was determined as 930; the Km, LxExG amounted to 1290 µM; the kcat/Km (Hz/M) was 854 Hz/M.

B15: eSrtA(4S-9) V182I (protein)
chain: QAKPQIPKDKSKVAGYIEIPDADIKEPVYPGPATREQLDRGVCFVEENESLDDQNISITGHTAIDRPNYQFTNLRAAKKGSMVYLKVGNETRKYKMTSIRNVKPTAVEVLDEQKGKDKQLTLITCDDYNFETGVWETRKIFVATEVK
Consider B15, for which the “activity and selectivity on LPESG and LPETG (kcat/Km)” value with Abz-LPESGK(Dnp)-CONH2 is listed as “Reversion of V182 in eSrtA(4S-9) preserved selectivity but decreased overall activity”.

B16: eSrtA(4S-9) T118A (protein)
chain: QAKPQIPKDKSKVAGYIEIPDADIKEPVYPGPATREQLDRGVCFVEENESLDDQNISIAGHTAIDRPNYQFTNLRAAKKGSMVYLKVGNETRKYKMTSIRNVKPTAVEVLDEQKGKDKQLTLVTCDDYNFETGVWETRKIFVATEVK
On to B16, for which the “lowering of specificity for LPESG over LPETG against eSrtA(4S-9)” value with Abz-LPESGK(Dnp)-CONH2 was “by 75-fold for the T118A mutant”.

The record behind these values is patent US20160208233A1 (Harvard, published 2016).
